{
  "source": "paper PMC5389812",
  "about": "“Rv3634c from Mycobacterium tuberculosis H37Rv encodes an enzyme with UDP-Gal/Glc and UDP-GalNAc 4-epimerase activities” (PLoS ONE, 2017)",
  "proteins": {"B1": {"name": "His-tagged Rv3634c (H3634) S121A mutant (enzyme)", "chain": "MRALVTGAAGFIGSTLVDRLLADGHSVVGLDNFATGRATNLEHLADNSAHVFVEADIVTADLHAILEQHRPEVVFHLAAQIDVRRSVADPQFDAAVNVIGTVRLAEAARQTGVRKIVHTSAGGSIYGTPPEYPTPETAPTDPASPYAAGKVAGEIYLNTFRHLYGLDCSHIAPANVYGPRQDPHGEAGVVAIFAQALLSGKPTRVFGDGTNTRDYVFVDDVVDAFVRVSADVGGGLRFNIGTGKETSDRQLHSAVAAAVGGPDDPEFHPPRLGDLKRSCLDIGLAERVLGWRPQIELADGVRRTVEYFRHKHTD", "notes": "not shown: His6, N-terminal, kept"}, "B2": {"name": "His-tagged Rv3634c (H3634) K150R mutant (enzyme)", "chain": "B1 chain with A121S, K150R", "notes": "as for B1"}, "B3": {"name": "His-tagged Rv3634c (H3634) Y146F mutant (enzyme)", "chain": "B1 chain with A121S, Y146F", "notes": "as for B1"}},
  "note": "Substitutions are numbered along the chain they refer to. Names and notes keep the numbering of the source.",
  "data": [
    {"target": "the molecule itself", "assay": "SEC; Superdex 200 16/600 GL column, FPLC buffer (20 mM Tris pH 8.0, 100 mM NaCl); calibrated with conalbumin, ovalbumin, carbonic anhydrase, ribonuclease A and aprotinin; molecular weight from Kav", "values": [
      {"protein": "B1", "stoichiometry N": 2},
      {"protein": "B2", "stoichiometry N": 2},
      {"protein": "B3", "stoichiometry N": 2}
    ]}
  ]
}
